Among the data in the Immune Epitope Database (IEDB) are Kd values, retold here.

Some targets named below: HLA-A*02:03; HLA-A*02:02; HLA-A*02:06.
Test in all cases: IEDB peptide-MHC binding, purified MHC/competitive/radioactivity; filed as Kd, often an IC50 or EC50 that approximates it; ≥ and ≤ were set here for values at or beyond the usual limits of such assays
The mark [1] stands for this setting: source organism: Vaccinia virus WR.
The mark [2] stands for this setting: source organism: SARS coronavirus Tor2.
[3] abbreviates: source organism: Mammarenavirus choriomeningitidis.

Turning to TMKAIEKDRL, the figures for the Kd with HLA-A*02:03 (setting [1]), in the test with HLA-A*02:02 (setting [1]) and in the test with HLA-A*02:06 (setting [1]) were 1060 nM, 171 nM and at least 69800 nM, respectively.
On the same counts, the results for PTDMLKLFT are at least 47000 nM, at least 29100 nM and at least 69200 nM.
As to LIVAALVFL, the Kd in the test with HLA-A*02:03 (setting [2]) was 136 nM; with HLA-A*02:02 (setting [2]) it was 9.38 nM; with HLA-A*02:06 (setting [2]), 10.5 nM.
On the same counts, the results for LVFLILCFT are 1850 nM, 2490 nM and 1370 nM.
As to LIYRQLTSNV, the Kd with HLA-A*02:03 (setting [1]) was found to be 7.49 nM; with HLA-A*02:02 (setting [1]), 78.7 nM; in the test with HLA-A*02:06 (setting [1]), 169 nM.
On to DVKVLAARL, for which the dissociation constant Kd in the test with HLA-A*02:03 (setting [1]) was determined as 10700 nM; with HLA-A*02:02 (setting [1]), 6230 nM; with HLA-A*02:06 (setting [1]), 9990 nM.
Regarding ILFLTLIVFT, the results for the Kd with HLA-A*02:03 (setting [2]), in the test with HLA-A*02:02 (setting [2]) and with HLA-A*02:06 (setting [2]) were 1070 nM, 23.6 nM and 703 nM, respectively.
For KTIAVSVYGA, the results for the Kd with HLA-A*02:03 (setting [1]), with HLA-A*02:02 (setting [1]) and with HLA-A*02:06 (setting [1]) were 224 nM, 366 nM and 427 nM, respectively.
In the case of IAVITETIPI, the Kd with HLA-A*02:03 (setting [1]) was determined as 31.9 nM; with HLA-A*02:02 (setting [1]) it was 515 nM; with HLA-A*02:06 (setting [1]), 1.04 nM.
On the same counts, the results for TIDKSSPLYI are 12.3 nM, 387 nM and 1820 nM.
Consider VLTLATGPV, for which, in the test with HLA-A*02:03 (source organism: Dengue virus 4 Philippines/H241/1956), the equilibrium dissociation constant (Kd) stood at 24.9 nM.
For TVPTNDHIPV, the Kd stood at 1890 nM in the test with HLA-A*02:03 (setting [1]), 1680 nM with HLA-A*02:02 (setting [1]) and 515 nM with HLA-A*02:06 (setting [1]).
As for VLALYSPPLI, the Kd with HLA-A*02:03 (setting [1]) is 101 nM; in the test with HLA-A*02:02 (setting [1]), 15.7 nM; in the test with HLA-A*02:06 (setting [1]), 868 nM.
For EIITGNKVKT the same measures were at least 70400 nM, at least 70000 nM and at least 69800 nM.
On the same counts, the results for FVKENERVNV are 11.8 nM, 186 nM and 683 nM.
On the same counts, the results for GTGILFMEM are 7730 nM, 2200 nM and 9980 nM.
Regarding SICLDYIIV, the Kd with HLA-A*02:03 (setting [1]) came out at 8650 nM; in the test with HLA-A*02:02 (setting [1]) it was 1460 nM; in the test with HLA-A*02:06 (setting [1]), 689 nM.
Take MQKFTILEYL: the values for the dissociation constant (Kd) with HLA-A*02:03 (setting [1]), in the test with HLA-A*02:02 (setting [1]) and in the test with HLA-A*02:06 (setting [1]) were 279 nM, 164 nM and 909 nM, respectively.
For QVLQQNNSFI the same measures were 3180 nM, 544 nM and 2320 nM.
On the same counts, the results for SISEINEWL are 1.84 nM, 0.129 nM and 6.29 nM.
GMSKEPGVV: the Kd with HLA-A*02:03 (source organism: Dengue virus 3 Martinique/1243/1999) amounted to 41.7 nM.
For the sequence LNQTVYSLV, the results for the dissociation constant Kd in the test with HLA-A*02:03 (setting [3]), with HLA-A*02:02 (setting [3]) and with HLA-A*02:06 (setting [3]) were 1500 nM, 3330 nM and 5100 nM, respectively.
For the sequence WLTPFEKEFT, the values for the Kd in the test with HLA-A*02:03 (setting [1]), with HLA-A*02:02 (setting [1]) and with HLA-A*02:06 (setting [1]) were 1550 nM, 2370 nM and at least 30800 nM, respectively.
In the case of RAFIYSIMET, the Kd worked out at 69.7 nM with HLA-A*02:03 (setting [1]), 81.4 nM with HLA-A*02:02 (setting [1]) and 578 nM in the test with HLA-A*02:06 (setting [1]).
On to FLPSDFFPSV, for which the Kd in the test with HLA-A*02:02 (source organism: Hepatitis B virus) was 2 nM.
Consider DISVNASKTI, for which the Kd is 11900 nM with HLA-A*02:03 (setting [1]), at least 46800 nM with HLA-A*02:02 (setting [1]) and at least 69800 nM with HLA-A*02:06 (setting [1]).
For GVLHTKFWI the same measures were 12300 nM, 16600 nM and 417 nM.
Consider FLWLLWPVTL, for which the Kd came to 14 nM in the test with HLA-A*02:03 (setting [2]), 2.67 nM with HLA-A*02:02 (setting [2]) and 28.4 nM in the test with HLA-A*02:06 (setting [2]).
For EVRYIDITNI, the Kd in the test with HLA-A*02:03 (setting [1]) was 5810 nM; with HLA-A*02:02 (setting [1]) it was 12900 nM; in the test with HLA-A*02:06 (setting [1]), 4340 nM.
On the same counts, the results for ALEQYGIENT are 2160 nM, 3150 nM and 1270 nM.
On the same counts, the results for CIVAAVIIMA are 619 nM, 1130 nM and 733 nM.
For IIPFIAYFVL the same measures were 4730 nM, 715 nM and 852 nM.
For the sequence YTRPEIDVL, the Kd with HLA-A*02:03 (setting [1]) was 73.6 nM; with HLA-A*02:02 (setting [1]) it was 115 nM; with HLA-A*02:06 (setting [1]), 154 nM.
On the same counts, the results for QIGGEAIFLI are 0.201 nM, 8.19 nM and 14.8 nM.
As to FVMCLEAKT, the Kd was found to be 1940 nM in the test with HLA-A*02:03 (setting [1]), 609 nM in the test with HLA-A*02:02 (setting [1]) and 979 nM with HLA-A*02:06 (setting [1]).
On the same counts, the results for VTTNNLLEQL are 17900 nM, 4690 nM and 5910 nM.

What is called Kd is the constant that tells how readily two partners part at equilibrium.
